Results taken from patent US20140341937A1 (US Dept. of Health and Human Services, published 2014).

T1: CCR4 (human, UniProt P51679 1-360)
T1 sequence (looked up): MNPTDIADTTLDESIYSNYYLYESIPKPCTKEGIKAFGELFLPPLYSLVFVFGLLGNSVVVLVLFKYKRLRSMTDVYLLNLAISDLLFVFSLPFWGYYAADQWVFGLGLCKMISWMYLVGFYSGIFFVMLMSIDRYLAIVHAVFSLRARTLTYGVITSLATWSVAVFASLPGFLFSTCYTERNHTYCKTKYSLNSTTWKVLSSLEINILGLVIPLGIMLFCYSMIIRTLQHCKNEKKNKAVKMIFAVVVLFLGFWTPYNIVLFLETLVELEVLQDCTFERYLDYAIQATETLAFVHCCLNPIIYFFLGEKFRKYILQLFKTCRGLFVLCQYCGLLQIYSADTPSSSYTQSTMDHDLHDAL

B1: TARC-PE38 (ligand)
chain: MARGTNVGRECCLEYFKGAIPLRKLKTWYQTSEDCSRDAIVFVTVQGRAICSDPNNKRVKNAVKYLQSLERSDGGGSGGGGSLEASGGPEGGSLAALTAHQACHLPLETFTRHRQPRGWEQLEQCGYPVQRLVALYLAARLSWNQVDQVIRNALASPGSGGDLGEAIREQPEQARLALTLAAAESERFVRQGTGNDEAGAANGPADSGDALLERNYPTGAEFLGDGGDVSFSTRGTQNWTVERLLQAHRQLEERGYVFVGYHGTFLEAAQSIVFGGVRARSQDLDAIWRGFYIAGDPALAYGYAQDQEPDARGRIRNGALLRVYVPRSSLPGFYRTSLTLAAPEAAGEVERLIGHPLPLRLDAITGPEEEGGRLETILGWPLAERTVVIPSAIPTDPRNVGGDLDPSSIPDKEQAISALPDYASQPGKPPREDLKRSAEEQKLISEEDLAHHHHHH
B2: MC148-EDN (ligand)
chain: MALARRKCCLNPTNRPIPNPLLQDLSRVDYQAIGHDCGREAFRVTLQDGRQGCVSVGNKSLLDWLRGHKDLCPQIWSGCESLEFNDAQAPKSLEGGGGSKPPQFTWAQWFETQHINMTSQQCTNAMQVINNYQRRCKNQNTFLLTTFANVVNVCGNPNMTCPSNKTRKNCHHSGSQVPLIHCNLTTPSPQNISNCRYAQTPANMFYIVACDNRDQRRDPPQYPVVPVHLDRIIGSAEEQKLISEEDLAHHHHHH
notes: also called MC148-chemotoxin

What was measured:
CCR4 = target: T1, CCR4; experiment: cell-based or functional assay
CCR8 = target: T2, CCR8 (human, UniProt P51685 1-355); experiment: flow cytometry on HEK293/CCR8 cells, 30 min at 4° C., anti-EDN antibody detection
T2 construct: whole, on cells; also called human CCR8; HEK/CCR8
T2 sequence (P51685 whole entry): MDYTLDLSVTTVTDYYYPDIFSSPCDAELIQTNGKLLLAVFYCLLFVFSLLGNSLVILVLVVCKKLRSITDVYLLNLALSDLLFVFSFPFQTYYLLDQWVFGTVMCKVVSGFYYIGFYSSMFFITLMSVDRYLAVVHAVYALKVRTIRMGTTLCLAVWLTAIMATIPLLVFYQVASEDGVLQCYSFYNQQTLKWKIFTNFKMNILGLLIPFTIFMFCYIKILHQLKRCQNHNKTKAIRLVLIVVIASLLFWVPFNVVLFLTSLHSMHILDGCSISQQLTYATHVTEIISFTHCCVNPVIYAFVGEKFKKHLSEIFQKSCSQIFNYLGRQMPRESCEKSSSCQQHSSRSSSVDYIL

| Binder | killing of human T lymphoblastoid CCRF-CEM cells in vitro (IC50) (CCR4) | binding result (CCR8) |
| --- | --- | --- |
| B1 | 3 to 8 nM |  |
| B2 |  | binds |
